Our source for the Kd values is article PMC9359528, “DNA binding by the Rad9A subunit of the Rad9-Rad1-Hus1 complex”.

Substitutions are numbered along the chain they refer to.

By Kd is commonly meant the free concentration of one partner at which half of the binding sites on the other are occupied at equilibrium, for simple one-to-one binding.

Holding throughout (test): EMSA; EMSA: 20 mM Tris-HCl pH 7.6, 80 mM NaCl, 1 mM DTT, 1 mM EDTA, 1.5% glycerol, 200 ng/ml poly dI/dC, 50 ug/ml BSA, 10 nM DNA; 6% native PAGE in 50 mM Tris-borate
On the technique in general: A gel shift assay detects complexes by their altered migration in electrophoresis.

The target of series [1] is T1, QM1 Rad9A 1-266 (Homo sapiens, UniProt Q99638 1-266, K11A;K15A;R22A;K78A).
T1 sequence: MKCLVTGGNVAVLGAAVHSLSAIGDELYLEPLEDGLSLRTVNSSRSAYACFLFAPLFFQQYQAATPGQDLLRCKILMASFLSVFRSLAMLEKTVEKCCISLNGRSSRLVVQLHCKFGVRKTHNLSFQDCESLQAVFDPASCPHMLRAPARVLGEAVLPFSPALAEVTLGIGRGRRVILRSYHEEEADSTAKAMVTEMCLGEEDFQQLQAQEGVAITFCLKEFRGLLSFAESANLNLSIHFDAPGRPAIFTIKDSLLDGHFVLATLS
The note with it: protein: recombinant; tags: His; label: 5'-fluorescein (6-carboxyfluorescein) on HC40; blunt.

The target in series [2] is T2, TM Rad9A 1-266 (Homo sapiens, UniProt Q99638 1-266, K11A;K15A;R22A).
T2 sequence: T1 sequence with A78K
Particulars: protein: recombinant; tags: His; label: 5'-fluorescein (6-carboxyfluorescein) on HC40; blunt.

Series [3] deals with T3, K220A Rad9A 94-266 (Homo sapiens, UniProt Q99638 94-266, K220A).
T3 sequence: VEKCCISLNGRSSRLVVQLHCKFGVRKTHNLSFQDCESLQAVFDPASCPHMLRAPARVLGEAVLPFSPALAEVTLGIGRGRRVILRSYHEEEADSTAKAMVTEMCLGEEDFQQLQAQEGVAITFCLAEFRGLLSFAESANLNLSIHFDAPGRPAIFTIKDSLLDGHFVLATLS
The note with it: protein: recombinant; tags: His; label: 5'-fluorescein (6-carboxyfluorescein) on HC40; blunt.

The target of series [4] is T4, LD Rad9A 94-266 (Homo sapiens, UniProt Q99638 94-266, del160-163).
T4 sequence: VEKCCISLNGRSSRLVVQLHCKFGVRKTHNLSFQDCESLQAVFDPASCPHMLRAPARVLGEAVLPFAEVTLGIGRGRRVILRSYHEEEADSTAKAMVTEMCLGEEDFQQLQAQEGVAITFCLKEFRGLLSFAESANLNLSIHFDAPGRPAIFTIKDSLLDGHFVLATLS
Particulars: protein: recombinant; tags: His; label: 5'-fluorescein (6-carboxyfluorescein) on HC40; blunt.

Series [5] has as its target T5, WT Rad9A 1-266 (Homo sapiens, UniProt Q99638 1-266).
T5 sequence: T1 sequence with A11K, A15K, A22R, A78K
Particulars: protein: recombinant; tags: N-terminal His; label: 5'-fluorescein (6-carboxyfluorescein) on HC40; blunt.

Series [6] concerns the target T6, WT Rad9A 94-266 (Homo sapiens, UniProt Q99638 94-266).
T6 sequence: T3 sequence with A127K
Particulars: protein: recombinant; tags: His; label: 5'-fluorescein (6-carboxyfluorescein) on HC40; blunt.

Series [7] has as its target T7, TM Rad9A 1-133 (Homo sapiens, UniProt Q99638 1-133, K11A;K15A;R22A).
T7 sequence: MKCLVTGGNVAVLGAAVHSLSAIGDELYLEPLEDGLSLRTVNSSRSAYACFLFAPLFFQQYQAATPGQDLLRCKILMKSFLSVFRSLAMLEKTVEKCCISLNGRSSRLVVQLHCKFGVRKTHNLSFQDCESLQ
The note with it: protein: recombinant; tags: His; label: 5'-fluorescein (6-carboxyfluorescein) on HC40; blunt.

Series [8] has as its target T8, WT Rad9A 134-266 (Homo sapiens, UniProt Q99638 134-266).
T8 sequence: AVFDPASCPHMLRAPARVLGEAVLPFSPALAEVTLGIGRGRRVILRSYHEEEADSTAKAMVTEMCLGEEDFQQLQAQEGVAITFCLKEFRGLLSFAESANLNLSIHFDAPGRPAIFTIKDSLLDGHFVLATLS
The note with it: protein: recombinant; tags: N-terminal His; label: 5'-fluorescein (6-carboxyfluorescein) on HC40; blunt.

The target in series [9] is T9, R223A Rad9A 94-266 (Homo sapiens, UniProt Q99638 94-266, R223A).
T9 sequence: T3 sequence with A127K, R130A
Particulars: protein: recombinant; tags: His; label: 5'-fluorescein (6-carboxyfluorescein) on HC40; blunt.

The target of series [10] is T10, DM Rad9A 94-266 (Homo sapiens, UniProt Q99638 94-266, R150A;R223A).
T10 sequence: T3 sequence with R57A, A127K, R130A
Particulars: protein: recombinant; tags: His; label: 5'-fluorescein (6-carboxyfluorescein) on HC40; blunt.

In series [11] the target is T11, WT Rad9A 1-133 (Homo sapiens, UniProt Q99638 1-133).
T11 sequence: T7 sequence with A11K, A15K, A22R
Particulars: protein: recombinant; tags: N-terminal His; label: 5'-fluorescein (6-carboxyfluorescein) on HC40; blunt.

B1: HC40/HG40 (dsDNA)
DNA 1: CCGAGGAATTCGCCTTCTGCTCCATAGCCACTGGTTGTAG
DNA 2: CTACAACCAGTGGCTATGGAGCAGAAGGCGAATTCCTCGG
B1: the Kd in [1] was 1770 ± 790 nM; in [2] it was 120 ± 30 nM; in series [3] it was 6400 ± 750 nM; in [4] it was 6120 ± 1270 nM; in series [5] it was 50 ± 10 nM; in [6] it was 1500 ± 400 nM. The dissociation constant Kd in series [7] amounted to 7740 ± 680 nM; in series [8] it was 3000 ± 620 nM; in series [9], 1170 ± 690 nM; in series [10], 7790 ± 880 nM; in series [11] it was 820 ± 150 nM.
